assay: protease stability score; higher = more stable; yeast display proteolysis, trypsin and chymotrypsin;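 also: log10 excess protease needed over predicted unfolded state with 0 meaning unfolded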

Point of comparison: “DENIKRTMSDFLHAVRDGDEDKLFKLADPNARMKYGDKDVHGMEEIVHQIKRLRRDASVDIHIKRVEVDGNRVDIKLEVVVNVNGRPQRYRFEIKVRFHNGRINALENNIDEDQLRKIES”, protease stability score 1.21. Against it:
- DDHNRAENFLKEVMRAMKNNDPQTLKELADPNVTVEVGDKEIHGQEEFHKWAETLNHNVDSLDIQFKEIRLRPGRAEAIVLITEDHNGRKDRKELNMVARVKGDDIHVVSMHQK — lower, 0.828
- DEKQMRSVTKFIRVLQHGDNNQLRRLADPNAKARVGEKDVTGMDDILTRWVTFVEQARVKIDIREMDVSNGKVVIDAHIEIDINGRPLRDKITIIAEYRNGRLKFLELHVDQDFMRKVKR — lower, 0.223
- DEKQMEQVNKNMETGDWDKLQEQADEDVRLVVGEREFHGREQFSEFAKQAKRMVDDNTIHRIDLQGEKVKIKFVIKHNGRTVDVTVVMEVHNGRIKRYVLRARDEDAEDIIRKMLS — lower, 0.902
- DQRTREKVAEDIDNNDPQKLQDQADENVRVEYGNKVVHGREQMQEWARSLKDDVDSLEVDHVELDGDKIDARVNFNVNGRRVVFTIEADAHNGTIQRLRMTVTSEEQDTHMKQAAN — lower, -0.209
- DEERNELAEHVVKAWHHNDPDRVQKLVDPNVRFEIGDKEVHGREEYARIQRTEKDQWDLQIEVKHITVHNGRVDVDFDWRIERDGRPRTNQQVVIFEVDNGKVKRVSFQERK — lower, -0.279
- DEENEDLLRKFVEALERNDEDKIMEQADPNAELRYGDKHIHGREKMRELVQNREKELRLDVKDFEVDVNNGHARITVENVQETNGRPTTTRYRIDASIHNGRLQKVNITSDK — lower, 0.287
- DEQKLAEDLAKEIIKALETGNSHRLHELMDENARLRVGDKDYTGDHRIAKWMKHKRDRVDRVEATIQEIDADGDKVTIVIEIVFDHNGRRERVIVDARAEIRGDKVRMKELHWS — lower, -0.101
- DEDDWKKFMKFLKNLRNGDDEQAAKQADPNARFEYGDETIHGREHFRKHVKDTKDHARYSFNLKDYRVTPGRIEARMDVHSMENGRPDSNDVVLILSLSNGRIKKVEMKQVS — lower, 0.063
- DQRLWERFVKDLEENDEKSWQDLVDKDAKVEVGDTSYQGREHALTAIQKWVHQVDHVEIKSYRIHGDNVQIRMEVVINGRKMQVTVQAHLHNGKMKNIHMEATDRHVVEKLRELIS — lower, 0.039
- DSERASEAARTFVDAMRTNDEKQFNELFDPNARVRIGDEKVHGMDRITDQLHNLNKKADHNEVLDYKVNGNTAVVHFQVDHNGQTRRYRIVITMHNGRVHEMQVNTK — lower, 0.458
- DKEELSWAKKVLEKNNWESLAENADENAKVDVGDKRYSGREQVEHLMNQLRRRVDHVEYKHIDSKGDKLVADFQVVVNGREVKVRLQMNVHNGRVRHLTMEARNEDDKRFLKEMLD — higher, 1.3
- DTEERAEDFMHIMQNAATHGDPNIQRHLADKHVRVEVGDKTVSGREEHKTEFDKRVKQYDSISVNMRKMEIDGDKARFNVEERYNTNGRNQHHDVKQQAIVQGDKVHLDRVDNK — lower, -0.603
- DEDRYRRKIEEVFKQVENGDEKKMKKDLKENVKYKYADKEKEGPEVAEHIVKVVKKIGAEVTRKEQEVKGDTLRAKFQYRKGDQTVRTEAEATYEGDQAKEVRVKMTDEVKKIVHQG — lower, 0.05
- DEDQAQKLIDKMTEAMFKNDEETIRKVGKEDVEVKNADEEYKGVDTIVDLARKYKEQGIEFHLEQVHKEGDQVKFTAVVHVADRTVKVEVKYKADNGHVERTEVEWSQEVKKAFQQH — lower, 0.97
- DEDHLRKLKEYVKNYNKGDPDKLDEYLDPNVRINVGDHTVHGMDEHNKQAEERTRNMRIQLRRVDVKARNGQLKATINAEAEVNGRPATLHADITVKMHNGKVKNIHVRMPEDYKREREK — lower, 0.008
- DEEDVKKAETLIKNGDWERIANHLDPNAKATYGDKTFHGHEELKRVIKNLQDQVDSLHIHKVDVQGNSVIVSADLHVNGETLKMTFVMHVHNGRVKEVSANVTSSELKELLDHMLS — lower, 0.749
- DDEQDAREFVKKFVDVMRENNPRELVKMADPNVKVDVGDHRLNGREDLERKRKREADRADHIDVKVTKLHVNGDTVQAHFSFTIRHDGRNERKSETIIARKHNGRVKIKSIKNS — lower, -0.13
- DEEQHNFANKVWEAITKGDPDEIRRLFDENVRVKVGNKTITGREELSETMEKIKKHLRMRVQVDEIEFDGDQIRVHFTANLNVNGRPVEYRAELIMHVHDGRVKHMHLRVPEQVERELEK — lower, 1.05
- DDDDMKLAEEFAQAISTGDHNRVEENADKDARFDIGDKVVNGNHQRATEVKKEQDDQKVSVDINSMDATGNKVVAEINVDINNNGHPETQEHILHFTQDNGKIRHMEVKDDQ — lower, -0.685
- DTEKTTELKKMFDHEQEGNENHLMRMFDPNATVQVGDKRIHGREDLQRWLDRFRKNQRVNVRSITVDVQGERFRVEVEADAKHNGRPNQMHRSMEVEFHNGRIKRADFQTDG — lower, 0.124
- DEEDLDTVAQTFVTALKQGDPHQVMKLADEDVKATVGDERVHGSQHVNELIKRFRRNVDHVDIEDYRIHNGKIRMRVRLTVNGRTQNLNMVLIVRNGRLKMFKIDPQDVRQFHG — lower, 0.972
- DEERVERLARTAFKAAVNGDEDKLRKMLKPDVKYKYIDEEREGEDVAKFVVKLMKKIGAEVRLKRLEVRGDTVKADFDYKQGDKTVRTKAEVKYKGDKVDEARVELTDEVKKVLTRG — lower, 0.125
- DDDKDRKIAEEITKLLKHGNPDELARQADPNVRLEVGDHVYHGRHQMVEWVKHFWERADHLRIKDVTTRPGHVDLVATLRFDGKEAEFKVTFEFHNGRLKRVEVDPEFQKQIDS — higher, 1.56
- DEEELDRLQKQLERNDWETFVRQADENVKVKYGDRSLHGHEDFNKYMKRLHDQVDHYQLNRVTNHGDHLQARVVFRFNGQNIDMTFEVRVHNGRIQEVVFHFTDPRTHKQFKENMD — higher, 1.42
